# Test results as given in patent US20030232781A1.
# Biological target: T1, CTCF (full-length) (UniProt P49711)
# T1 sequence: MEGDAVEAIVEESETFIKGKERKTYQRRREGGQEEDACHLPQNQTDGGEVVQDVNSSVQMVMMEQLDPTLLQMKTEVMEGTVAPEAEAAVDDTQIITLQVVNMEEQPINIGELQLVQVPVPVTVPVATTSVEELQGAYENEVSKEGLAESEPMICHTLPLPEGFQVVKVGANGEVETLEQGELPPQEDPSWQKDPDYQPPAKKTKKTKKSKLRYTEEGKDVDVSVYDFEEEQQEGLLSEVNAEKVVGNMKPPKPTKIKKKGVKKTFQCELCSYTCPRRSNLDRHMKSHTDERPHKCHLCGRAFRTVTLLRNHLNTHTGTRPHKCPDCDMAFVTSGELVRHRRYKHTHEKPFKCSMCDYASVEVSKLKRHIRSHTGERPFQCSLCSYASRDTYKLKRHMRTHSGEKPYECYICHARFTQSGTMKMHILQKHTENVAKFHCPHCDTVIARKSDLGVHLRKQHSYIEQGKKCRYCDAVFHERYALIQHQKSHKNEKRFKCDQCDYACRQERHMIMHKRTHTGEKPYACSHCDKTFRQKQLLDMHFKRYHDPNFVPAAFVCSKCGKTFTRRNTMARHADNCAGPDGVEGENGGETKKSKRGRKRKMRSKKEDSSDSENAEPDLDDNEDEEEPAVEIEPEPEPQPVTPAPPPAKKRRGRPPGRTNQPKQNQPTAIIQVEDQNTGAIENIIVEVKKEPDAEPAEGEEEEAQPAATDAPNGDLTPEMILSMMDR
# Assay: SPR
# Details: 5mC at all CpG (SssI); at least 1000-fold lower than unmethylated; no stable complexes
row,Sequence,Ka [M⁻¹]
1,CGCGKGGTGGCAG (double strand) [DMD4 methylated],1e+08
2,CGCGKGGTGGCAG (double strand) [DMD7 methylated],1e+08
